Molecular target: recombinant MUC5AC C terminus protein (human)
Experiment: SDS-PAGE under non-reducing and reducing conditions with western blot; purified recombinant protein from cell lysates and cell supernatants run reduced and non-reduced on 6% Bis-Tris acrylamide or 3%-8% Tris-Acetate gels, transferred to PVDF, probed with a His antibody

stoichiometry N: 2
Substance: recombinant MUC5AC C terminus protein (domain or fragment)

Reference: publication PMC5590460
